How the values were obtained:
[1] = target: HLA-A02.01 (human); experiment: pMHC-I complex dissociation at 37 C, 125I-b2m, half-life
Method: (§1) Briefly, synthetic genes encoding biotinylated MHC-I heavy and light chains are expressed in E. coli and purified from inclusion bodies using standard methods. […] These reactions are carried out in streptavidin coated microplates to bind the biotinylated MHC-I heavy chains to the surface and allow measurement of radiolabeled light chain to monitor complex formation. Dissociation is initiated by addition of higher concentrations of unlabeled light-chain and incubation at 37° C. Stability is defined as the length of time in hours it takes for half of the complexes to dissociate, as measured by scintillation counts.

[2] = target: HLA-A02.01 (human); experiment: competition vs radiolabeled reference peptide on purified MHC I, gel filtration
Method: (§2) Peptides were incubated at varying concentrations with these complexes for 2 days, and the amount of remaining radiolabeled peptide bound to […] was measured using size exclusion gel-filtration.

[3] = target: T1, HLA class I molecule A02.01; experiment: competition with radiolabeled reference peptide on purified MHC I
T1 construct: Purified MHC class I complex; also called HLA-A02:01
Method: as §2

[4] = target: T1, HLA class I molecule A02.01; experiment: pMHC-I dissociation half-life, 125I-b2m
Method: as §1

GVYTFLPST (also called ESR1, S463P)
Stability (T1/2 (h)) [1]: 1.3 h | IC50 [2]: 779 nM

MSVCFFFFSV (also called CNOT1(+1))
IC50 [2]: 1710 nM

ALFFFFFET (also called C15ORF40(+1))
IC50 [2]: 471 nM

GLLLEMLDA (also called ESR1, D538G)
Stability (T1/2 (h)) [1]: 0.4 h | IC50 [2]: 558 nM

YITAFFLLDI (also called NDUFC2 (-KCDT14)(-1))
IC50 [3]: 64.5 nM

LLPIPPLSPS (also called MYC, T58I)
Stability (T1/2 (h)) [4]: 0 h

NVVPLYGLL (also called ESR1, D538G)
Stability (T1/2 (h)) [1]: 0 h | IC50 [2]: 10500 nM

LIMQLMPFGC (also called EGFR, T790M)
Stability (T1/2 (h)) [1]: 0.4 h

ITAFFFCWI (also called NDUFC2 (-KCDT14)(+1))
IC50 [3]: 7490 nM

FILMELMAGG (also called ALK, L1196M)
Stability (T1/2 (h)) [1]: 0 h | IC50 [2]: 1580 nM

GLSISCTTL (also called β2M, . . ; MPAV)
IC50 [2]: 114 nM

KVLQMDFLV (also called APC, VHPA)
Stability (T1/2 (h)) [1]: 6.4 h | IC50 [2]: 11 nM

FFFSVIFST (also called CNOT1(+1))
IC50 [2]: 4560 nM

PLYGLLLEM (also called ESR1, D538G)
Stability (T1/2 (h)) [1]: 0.7 h | IC50 [2]: 640 nM

AIQPVLWTT (also called GATA3 . . ; CSNH)
IC50 [3]: 8.1 nM

ALAPTLTHM (also called MLL2, . . ; LSPH)
IC50 [3]: 59 nM

CLIVSRTLLL (also called MSH3(-1))
IC50 [3]: 2010 nM

LLDILDTAGL (also called KRAS, Q61L)
IC50 [3]: 716 nM

SVCFFFFCYI (also called CNOT1(-1))
IC50 [2]: 520 nM

FFFETKSCSV (also called C15ORF40(+1))
IC50 [2]: 61.2 nM

VQWRSLGSL (also called C15ORF40(+1))
IC50 [2]: 4730 nM

ILLPEDTPPL (also called MSH6(+1))
IC50 [3]: 6.7 nM

TQISSATEYL (also called ABL1, M351T)
Stability (T1/2 (h)) [1]: 0 h | IC50 [2]: 2640 nM

LIVSRTLLLV (also called MSH3(-1))
IC50 [3]: 10900 nM

IIIEFMTYG (also called ABL1, T315I)
Stability (T1/2 (h)) [1]: 0 h | IC50 [2]: 779 nM

FLLALWECS (also called MSH3(-1))
IC50 [3]: 93.2 nM

VLLSVHLIV (also called APC, AVEW)
Stability (T1/2 (h)) [1]: 11 h | IC50 [2]: 72 nM

IIIEFMTYGN (also called ABL1, T315I)
Stability (T1/2 (h)) [1]: 0 h

LMELMAGGDL (also called ALK, L1196M)
Stability (T1/2 (h)) [1]: 8.9 h | IC50 [2]: 311 nM

ILIRKAMTV (also called EPHB2(-1))
IC50 [2]: 19.5 nM

IIEFMTYGNL (also called ABL1, T315I)
Stability (T1/2 (h)) [1]: 0 h | IC50 [2]: 9700 nM

RLWHLLLQVT (also called MLL2, . . ; LSPH)
IC50 [3]: 50.9 nM

NVVPLCDLL (also called ESR1, Y537C)
Stability (T1/2 (h)) [1]: 0 h | IC50 [2]: 3030 nM

NVVPLSDLL (also called ESR1, Y537S)
Stability (T1/2 (h)) [1]: 0 h | IC50 [2]: 916 nM

NVVPLNDLL (also called ESR1, Y537N)
Stability (T1/2 (h)) [1]: 0 h | IC50 [2]: 2900 nM

PLCDLLLEM (also called ESR1, Y537C)
Stability (T1/2 (h)) [1]: 0.8 h | IC50 [2]: 602 nM

PLSDLLLEM (also called ESR1, Y537S)
Stability (T1/2 (h)) [1]: 2.7 h | IC50 [2]: 404 nM

PLNDLLLEM (also called ESR1, Y537N)
Stability (T1/2 (h)) [1]: 4.2 h | IC50 [2]: 151 nM

VLTVTSTDV (also called FGFR3: TACC3)
Stability (T1/2 (h)) [1]: 1.1 h | IC50 [2]: 295 nM

ILMELMAGGD (also called ALK, L1196M)
Stability (T1/2 (h)) [1]: 0 h | IC50 [2]: 3450 nM

YIIIEFMTYG (also called ABL1, T315I)
Stability (T1/2 (h)) [1]: 0 h | IC50 [2]: 186 nM

ILMELMAGG (also called ALK, L1196M)
Stability (T1/2 (h)) [1]: 0.5 h | IC50 [2]: 223 nM

VLPEPHLAL (also called GATA3 . . ; CSNH)
IC50 [3]: 16 nM

IVSRTLLLV (also called MSH3(-1))
IC50 [3]: 12.7 nM

B1: … (peptide)
peptide: LQMDFLVHPA
notes: likely a print error; also called APC, VHPA
Stability (T1/2 (h)) [1]: 1.5 h | IC50 [2]: 68 nM

ITAFFLLDI (also called NDUFC2 (-KCDT14)(-1))
IC50 [3]: 78.7 nM

LLPEDTPPL (also called MSH6(+1))
IC50 [3]: 2.8 nM

FKLFSCLSFL (also called C15ORF40(+1))
IC50 [2]: 663 nM

ALWECSLPQA (also called MSH3(-1))
IC50 [3]: 9 nM

AQAGVQWRSL (also called C15ORF40(+1))
IC50 [2]: 670 nM

KQWSSVTSL (also called EIF2B3(-1))
IC50 [2]: 26.5 nM

RLWHLLLQV (also called MLL2, . . ; LSPH)
IC50 [3]: 1.3 nM

ALAPTLTHML (also called MLL2, . . ; LSPH)
IC50 [3]: 39 nM

LQVTQTSFAL (also called MLL2, . . ; LSPH)
IC50 [3]: 718 nM

FLSSWDYRRM (also called C15ORF40(+1))
IC50 [2]: 324 nM

VLQRFRFTHV (also called β2M, . . ; SQIS)
IC50 [2]: 107 nM

KLGGGQHGEV (also called ABL1, Y253H)
Stability (T1/2 (h)) [1]: 0.4 h | IC50 [2]: 387 nM

PLCDLLLEML (also called ESR1, Y537C)
Stability (T1/2 (h)) [1]: 0.9 h | IC50 [2]: 2010 nM

PLNDLLLEML (also called ESR1, Y537N)
Stability (T1/2 (h)) [1]: 0 h | IC50 [2]: 12000 nM

B2: PLSDLLLEML (peptide)
peptide: PLSDLLLEML
notes: also called E5R1, Y537S (so in the source); ESR1, Y537S
Stability (T1/2 (h)) [1]: 0 h | IC50 [2]: 6470 nM

LLQVTQTSFA (also called MLL2, . . ; LSPH)
IC50 [3]: 677 nM

CLADVLLSV (also called APC, AVEW)
Stability (T1/2 (h)) [1]: 24 h | IC50 [2]: 219 nM

B3: ALEEKKGNYV (peptide)
peptide: ALEEKKGNYV
notes: also called EGFRvIII (internal deletion)
Stability (T1/2 (h)) [1]: 0 h | IC50 [2]: 141 nM

NVVPLCDLLL (also called ESR1, Y537C)
Stability (T1/2 (h)) [1]: 0 h | IC50 [2]: 1370 nM

NVVPLNDLLL (also called ESR1, Y537N)
Stability (T1/2 (h)) [1]: 0 h | IC50 [2]: 4190 nM

NVVPLSDLLL (also called ESR1, Y537S)
Stability (T1/2 (h)) [1]: 0 h | IC50 [2]: 741 nM

Reference: patent US20220282217A1 (BIONTECH US, published 2022)
